These are literature values, as cited in PMC3050594.

As usually defined, the Kd is the concentration at which binding is half-saturated.

The target of data set [1] is RSV F glycoprotein (Human respiratory syncytial virus) (UniProt P03420).
For data set [2] the target is unchanged. The source holds these as a separate data set.

Read-outs that look alike come from different tables or passages of the source.

Turning to motavizumab, in data set [1], the Kd is 0.035 nM.

Turning to palivizumab, the equilibrium dissociation constant (Kd) in data set [2] is 1.4 nM.
